The values below come from paper PMC6895266, “Zika virus NS3 is a canonical RNA helicase stimulated by NS5 RNA polymerase”.

For data set [1], the target named is ZIKV NS5, purified recombinant (UniProt A0A024B7W1). Briefly: co-immunoprecipitation (IP Myc) with purified proteins, western blot quantification. Particulars: parent: est. 1.0; read off a plot. On the technique in general: In western blotting, separated proteins are transferred to a membrane and probed.
For data set [2], the target named is NS3F (full-length NS3) WT (Zika virus, UniProt A0A2D0WX26 1504-2119). Put plainly: fluorescence polarization; 5 mM MgCl2, no ATP. Particulars: protein: recombinant; tags: His; Myc (anti-myc blot); label: Cy3 (printed before the 5' end); single strand. In general terms: Polarisation of emitted light reports the rotation of a fluorescent probe.

Consider “ZIKV full-length NS3 (NS3F, residues 2-617), purified recombinant N569A; E573A”, for which, in data set [1], the ratio to parent came out at 0.16.

As a reminder, the Kd is the free concentration of one partner at which half of the binding sites on the other are occupied at equilibrium, for simple one-to-one binding. Turning to GCGUCUUUACGGUGCU (ssRNA) [Cy3-ssRNA 16-mer], in data set [2], the Kd is 99 ± 7 nM.
